Assay results taken from publication PMC3985513 (Biochemistry, 2014).
Read-outs that look alike come from different tables or passages of the source.

B1: SwH-NOX (heme-nitric oxide/oxygen binding protein from Shewanella woodyi), wild type (natural protein, UniProt B1KIH6 1-182, looked up)
chain: MMGMVFTGLMELIEDEFGYETLDTLLESCELQSEGIYTSVGSYDHQELLQLVVKLSEVSSVPVTELVRLFGKKLFVELIEGHPEIANEMKDSFDLLSKIDSFIHVEVYKLYPQAELPKFTCDRLGDNDIRLHYQSKRPFASFAEGLLDGCAEYFKEDFTISRTPETQDSETDVIFNITRAPR
B2: SwHaCE (H-NOX-associated cyclic-di-GMP processing enzyme from Shewanella woodyi, diguanylate cyclase/phosphodiesterase) (enzyme, UniProt B1KIH5 1-637, looked up)
chain: MSALEDREQVFLRRIDREKRARQQAEQILNEKSKELWNTNQKLQQINEQLDQMVKTRTSELEIAKTNAELESLAHKNAKERFQLAMRATSAGVWERNIDEDAWYFSDRLIALFGYSREELLFGFKNLSFIHNEDKKPLLHVLKNHFRNGKAFDFECRVLTSEGRYKWFWIVGQAVWNDKGEVVRIAGSFSDIDERVENSKLVEKMAHYDHLTMVPNRVLYNQKLDIALSLADKEQSHLAVILIDLNDFKQVNDTLGHSAGDHLLQHIANQFKLNISESDIVARLGGDEFSIVLTNIANRQAVVTKCEQVLEIISRPFYYQKNLIIPKISMGIALYPEYGMTRDELMVNADLAMYKAKGEKHMGSGFQFCEQEHINKNMERTELSSELCEAITENEFFMHFQPIIDLSNGEVTFAEALIRWKHTNKGVLLPEKFISIAEDSGLITRLGKLSIELVAKQIDRMMAAKRLQKLTINISPSHFLSQSFMEDLKEILSVYPKMSSFITIEITEVVFLLNMEVAKKTVIELHDMGITISLDDFGTGYSSFKYLQQLPIDVIKLDCSFIAELDIDPSHRNIASTIIELAHSLEIKVIAEGVETNSQLVFLQDHHCDFAQGSYFFKPLSVIDFLHMQRCISLPAK

Assays:
[1] = target: B2; experiment: other fluorescence titration
[2] = target: B2; experiment: AUC
[3] = target: B2; experiment: AUC; remark: listed apart in the source
[4] = target: the molecule itself; experiment: AUC

Binder | Kd [1] [nM] | stoichiometry N [2] | stoichiometry N [3] | stoichiometry N [4]
B1 | 2500 to 3000 | 1 H-NOX per HaCE (2+2) | 1 H-NOX per HaCE (2+2) | 
B2 |  |  |  | 2
